Laboratory results taken from patent publication US20260216326A1 (PROMETHEUS BIOSCIENCES, published 2026).
Positions count from the first letter of the chain named. Blank lines part the entries; values can stand above or below the binder they belong to.

Legend:
human TL1A = biological target: T1, human TL1A (human, UniProt O95150 72-251, limits assumed); assay: ELISA titration on plate-coated human TL1A, unpurified culture supernatant
T1 construct: also called tumor necrosis factor-like cytokine 1A; TNFSF15
T1 sequence (looked up): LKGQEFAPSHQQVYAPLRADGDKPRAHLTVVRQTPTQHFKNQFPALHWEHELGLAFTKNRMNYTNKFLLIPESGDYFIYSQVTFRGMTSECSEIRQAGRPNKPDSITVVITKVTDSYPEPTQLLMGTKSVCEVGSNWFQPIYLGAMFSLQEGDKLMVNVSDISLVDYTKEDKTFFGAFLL

TL1A in human blood = biological target: T2, TL1A in human blood (human, UniProt O95150 72-251, limits assumed); assay: cell-based or functional assay
T2 sequence (looked up): T1 sequence (looked up)

B1: A178 (antibody, IgG1, V domains shown)
VH: QVQLVQSGAEVKKPGASVKVSCKASGFDIQDTYMHWVRQAPGQGLEWMGRIDPASGHIKYDPKFQGRATMTRDTSTSTVYMELSSLRSEDTAVYYCARSGGLPDWWGQGTTVTVSS
VL: EIVLTQSPGTLSLSPGERATLSCRASSSVSYMYWYQQKPGQAPRPLIYATSNLASGIPDRFSGSGSGTDFTLTISRLEPEDFAVYYCQQWEGNPRTFGGGTKLEIK
- Kd (human TL1A): 0.043 nM

B5: A185 (antibody, IgG1, V domains shown)
VH: B1 VH with R38K, A40R, M48I, I58T, G66V, V79A, M81L, W105V
VL: B1 VL with P45L
- Kd (human TL1A): 0.056 nM

B6: A222 (antibody, IgG1, V domains shown)
VH: B1 VH with R38K, A40R, I58T, G66V, A68V, M70I, V79A, M81L, W105V
VL: B1 VL
- Kd (human TL1A): 0.06 nM

B7: A204 (antibody, IgG1, V domains shown)
VH: B1 VH with Q1E, D52E, A68V, V79A
VL: B1 VL
- Kd (human TL1A): 0.053 nM

B8: A197 (antibody, IgG1, V domains shown)
VH: B1 VH with Q1E, R38K, D52E, A68V
VL: B1 VL with L46W
- Kd (human TL1A): 0.054 nM

B9: A199 (antibody, IgG1, V domains shown)
VH: EVQLVQSGAEVKKPGASVKVSCKASGFDIQDTYMHWVKQRPGQGLEWIGRIDPASGHTKYDPKFQVRATITTDTSTSTAYLELSSLRSEDTAVYYCARSGGLPDVWGQGTTVTVSS
VL: B1 VL
- Kd (human TL1A): 0.05 nM

B10: A211 (antibody, IgG1, V domains shown)
VH: B9 VH with E1Q
VL: B1 VL
- Kd (human TL1A): 0.058 nM

B11: A203 (antibody, IgG1, V domains shown)
VH: B1 VH with Q1E, R38K, D52E, A68V
VL: B1 VL
- Kd (human TL1A): 0.062 nM

B12: A179 (antibody, IgG1, V domains shown)
VH: B1 VH with R38K, D52E
VL: B1 VL
- Kd (human TL1A): 0.079 nM

B13: A214 (antibody, IgG1, V domains shown)
VH: B9 VH with E1Q, K38R, I48M, A68V, T72R
VL: B1 VL
- Kd (human TL1A): 0.051 nM

B14: A184 (antibody, IgG1, V domains shown)
VH: B9 VH with E1Q, T72R
VL: B1 VL with P45L
- Kd (human TL1A): 0.061 nM

B15: A215 (antibody, IgG1, V domains shown)
VH: B9 VH with E1Q, K38R, I48M, A68V
VL: B1 VL
- Kd (human TL1A): 0.048 nM

B17: A198 (antibody, IgG1, V domains shown)
VH: B1 VH with Q1E, D52E, A68V, V79A
VL: B1 VL with L46W
- Kd (human TL1A): 0.053 nM

B18: A223 (antibody, IgG1, V domains shown)
VH: B9 VH with K38R
VL: B1 VL with P45L
- Kd (human TL1A): 0.062 nM

B20: A180 (antibody, IgG1, V domains shown)
VH: B1 VH with D52E, V79A
VL: B1 VL
- Kd (human TL1A): 0.058 nM

B21: A218 (antibody, IgG1, V domains shown)
VH: B9 VH with E1Q, I48M, A68V, T72R, L81M
VL: B1 VL
- Kd (human TL1A): 0.051 nM

B24: A182 (antibody, IgG1, V domains shown)
VH: B9 VH with E1Q, R40A
VL: B1 VL with P45L
- Kd (human TL1A): 0.067 nM

B26: A186 (antibody, IgG1, V domains shown)
VH: B9 VH with E1Q, I70M
VL: B1 VL with P45L
- Kd (human TL1A): 0.067 nM

B28: A188 (antibody, IgG1, V domains shown)
VH: B9 VH with E1Q, A68V
VL: B1 VL with P45L
- Kd (human TL1A): 0.063 nM

B32: A202 (antibody, IgG1, V domains shown)
VH: B1 VH with Q1E, D52E
VL: B1 VL
- Kd (human TL1A): 0.059 nM

B34: A200 (antibody, IgG1, V domains shown)
VH: B9 VH with K38R
VL: B1 VL
- Kd (human TL1A): 0.052 nM

B35: A193 (antibody, IgG1, V domains shown)
VH: B9 VH
VL: B1 VL with L46W
- Kd (human TL1A): 0.055 nM

B36: A183 (antibody, IgG1, V domains shown)
VH: B9 VH with E1Q, I48M
VL: B1 VL with P45L
- Kd (human TL1A): 0.065 nM

B37: A217 (antibody, IgG1, V domains shown)
VH: B9 VH with E1Q, I48M, A68V, T72R, A79V, L81M
VL: B1 VL
- % Inhibition at 1 nM Ig; interferon gamma release in human blood (TL1A in human blood): 46%
- % Inhibition at 10 nM Ig; interferon gamma release in human blood (TL1A in human blood): 72.2%
- Kd (human TL1A): 0.043 nM

B38: A210 (antibody, IgG1, V domains shown)
VH: B1 VH with Q1E, D52E, A68V, V79A
VL: B1 VL with P45L
- Kd (human TL1A): 0.07 nM

B39: A209 (antibody, IgG1, V domains shown)
VH: B1 VH with Q1E, R38K, D52E, A68V
VL: B1 VL with P45L
- Kd (human TL1A): 0.058 nM

B40: A181 (antibody, IgG1, V domains shown)
VH: B9 VH with E1Q, K38R
VL: B1 VL with P45L
- Kd (human TL1A): 0.06 nM

B41: A194 (antibody, IgG1, V domains shown)
VH: B9 VH with K38R
VL: B1 VL with L46W
- Kd (human TL1A): 0.051 nM

Other lines, results leading:

- % Inhibition at 1 nM Ig; interferon gamma release in human blood (TL1A in human blood): 51.3%
- % Inhibition at 10 nM Ig; interferon gamma release in human blood (TL1A in human blood): 72.4%
B2: A147 (antibody, IgG1, V domains shown)
VH: B1 VH with R38K, A40R, D52E, A68V
VL: B1 VL

- Kd (human TL1A): 0.055 nM
B3: A192 (antibody, IgG1, V domains shown)
VH: B9 VH with E1Q, A79V, L81M
VL: B1 VL with P45L

- Kd (human TL1A): 0.054 nM
B4: A196 (antibody, IgG1, V domains shown)
VH: B1 VH with Q1E, D52E
VL: B1 VL with L46W

- Kd (human TL1A): 0.058 nM
B16: A201 (antibody, IgG1, V domains shown)
VH: B1 VH with Q1E, D52E, M70I, R72T
VL: B1 VL

- Kd (human TL1A): 0.057 nM
B19: A191 (antibody, IgG1, V domains shown)
VH: B9 VH with E1Q, L81M
VL: B1 VL with P45L

- % Inhibition at 1 nM Ig; interferon gamma release in human blood (TL1A in human blood): 36.9%
- % Inhibition at 10 nM Ig; interferon gamma release in human blood (TL1A in human blood): 63.2%
- Kd (human TL1A): 0.05 nM
B22: A220 (antibody, IgG1, V domains shown)
VH: B9 VH with E1Q, I48M, A68V, I70M, T72R
VL: B1 VL with L46W

- Kd (human TL1A): 0.056 nM
B23: A187 (antibody, IgG1, V domains shown)
VH: B9 VH with E1Q, A68V, T72R
VL: B1 VL with P45L

- Kd (human TL1A): 0.05 nM
B25: A206 (antibody, IgG1, V domains shown)
VH: B9 VH with K38R
VL: B1 VL with P45L

- Kd (human TL1A): 0.049 nM
B27: A216 (antibody, IgG1, V domains shown)
VH: B9 VH with E1Q, K38R, A68V, T72R
VL: B1 VL

- Kd (human TL1A): 0.076 nM
B29: A224 (antibody, IgG1, V domains shown)
VH: B1 VH with Q1E, R38K, D52E, A68V
VL: B1 VL

- Kd (human TL1A): 0.076 nM
B30: A189 (antibody, IgG1, V domains shown)
VH: B9 VH with E1Q, A68V, I70M
VL: B1 VL with P45L

- Kd (human TL1A): 0.055 nM
B31: A205 (antibody, IgG1, V domains shown)
VH: B9 VH
VL: B1 VL with P45L

- Kd (human TL1A): 0.056 nM
B33: A195 (antibody, IgG1, V domains shown)
VH: B1 VH with Q1E, D52E, M70I, R72T
VL: B1 VL with L46W

- Kd (human TL1A): 0.057 nM
B42: A190 (antibody, IgG1, V domains shown)
VH: B9 VH with E1Q, A79V
VL: B1 VL with P45L
